Test system: Sprague-Dawley rats, glomerular changes
Format: in vivo, rat
Conditions: for Alcian Blue pH 1.0, scoring of glomerular staining (sulfated glycosaminoglycans) / Alcian Blue pH 2.5, scoring of glomerular staining (acidic glycosaminoglycans) / HS core protein (Ab BL-31), scoring of glomerular staining: 6 weeks, average with standard error; for Alcian Blue pH 1.0, scoring of glomerular staining (sulfated glycosaminoglycans) / Alcian Blue pH 2.5, scoring of glomerular staining (acidic glycosaminoglycans) / HS core protein (Ab BL-31), scoring of glomerular staining / Creat C-2wk / Creat C-6wk: n = 4; for Creat C-2wk: creatinine clearance at 2 weeks; for Creat C-6wk: creatinine clearance at 6 weeks; for average glomerular volume / decrease in heparan sulfate (HS) side-chain staining relative to controls / glomerular albumin deposition / cross-linking relative to controls / immunofluorescent glomerular staining for Heparan Sulfate Proteoglycan Core protein / immunofluorescent glomerular staining for Heparan Sulfate Proteoglycan side-chain / immunofluorescent glomerular staining for RSA / increase in glomerular volume (GV) relative to controls / Alcian blue pH 1.0 glomerular staining versus controls / increase in acidic glycosaminoglycans, Alcian Blue pH 2.5 staining: rat, in vivo
Method: Male Sprague-Dawley rats (Sasco, 100 g) were used. After a 1 week adaptation period, rats were placed in metabolic cages to obtain a 24 hour urine specimen for 2 days before administration of injections. Rats were then divided into experimental and control groups and given tail vein injections with either saline, unmodified RSA (50 mg/kg), Amadori-RSA (50 mg/kg), NaBH4-reduced Amadori-RSA (50 mg/kg), or AGE-RSA (50 mg/kg).
Rats injected with Amadori-RSA and AGE-RSA were then either left untreated, or further treated by the administration of either aminoguanidine (AG; 25 mg/kg), pyridoxamine (PM; 25 mg/kg), or a combination of AG and PM (10 mg/kg each) through the drinking water. Body weight and water intake of the rats were monitored weekly in order to adjust dosages. At the conclusion of the experimental study the rats were placed in metabolic cages to obtain 24 hour urine specimen for 2 days prior to sacrificing the animals.
After perfusion with saline, kidney sections were fixed in ice-cold 10% neutral buffered formalin. Paraffin-embedded tissue sections from all rat groups (n=4 per group) were processed for staining with Harris' alum hematoxylin and eosin (H&E), perodic acid/Schiff reagent (PAS), and alcian blue (pH 1.0 and pH 2.5) stains for histological examination. The alcian blue sections were scored by two investigators in a blinded fashion.
Parrafin-embedded sections were deparaffinized and then blocked with 10% goat serum in PBS for 30 min at room temperature. […] The sections were then rinsed for 30 min with PBS in the dark, mounted in aqueous mounting media for immunocytochemistry (Biomeda), and cover slipped. Sections were scored in a blinded fashion. Kidney sections were evaluated by the number and intensity of glomerular staining in 5 regions around the periphery of the kidney. Scores were normalized for the immunofluorescent score per 100 glomeruli with a scoring system of 0-3.
All animals studies were carried out in conformance with institutional guidelines for animal research protocols. Male Sprague-Dawley 100 g rats (Sasco Co., Omaha Nebr.) were used in these studies. After a 1 week adaptation period, rats were placed in metabolic cages for 2 days to get two 24 hour urine specimens before starting treatment. Rats were then given daily single tail vein injections for 6 weeks according to the following treatment groups: saline, unmodified RSA (50 mg/kg), Amadori-RSA (50 mg/kg), NaBH4-reduced Amadori-RSA (50 mg/kg), and AGE-RSA (50 mg/kg). Groups of rats injected with Amadori-RSA or AGE-RSA were also administered aminoguanidine (25 mg/kg/day), pyridoxamine (25 mg/kg/day), a combination of the two (10 mg/kg/day each), or with nothing added to the drinking water. Body weight and water intake of the rat were monitored weekly in order to adjust dosages. At the conclusion of the study, the rats were placed in metabolic cages for two days to get two 24 hour urine specimens before sacrificing the animals.
Total protein in urine was determined by Bio-Rad assay. Albumin in urine was determined by competitive ELISA using rabbit anti-rat serum albumin (Cappell) as primary antibody (1:2000) and goat anti-rabbit IgG (Sigma) as a secondary antibody (1:2000). Urine was tested with Multistix 8 SG (Miles) for glucose, ketone, specific gravity, blood, pH, protein, nitrite and leukocytes. Creatinine measurements were performed with a Beckman creatinine analyzer II. Intracardiac blood samples were collected before termination and were used in the determination of creatinine clearance, blood glucose (glucose oxidase, Sigma), fructosamine (nitroblue tetrazolium, Sigma), and glycated Hb (Glycotest II analytical boronate columns, Pierce).
After perfusion with saline, kidney sections were fixed in ice-cold 10% neutral buffered formalin. […]

**Q.** Which “Alcian Blue pH 1.0, scoring of glomerular staining (sulfated glycosaminoglycans)” value (shortened to “Alcian Blue pH 1.0, scoring”) does the source give for “AGE-RSA: Amadori-RSA re-incubated in the absence of sugar for 2-3 days at 37° C.” here?
**A.** 1.25 ± 0.14

**Q.** And the “Alcian Blue pH 2.5, scoring of glomerular staining (acidic glycosaminoglycans)” value (shortened to “Alcian Blue pH 2.5, scoring”)?
**A.** 2.44± 0.21

**Q.** What about the “HS core protein (Ab BL-31), scoring of glomerular staining” value (shortened to “HS core protein (Ab BL-31), scoring”) of the same molecule?
**A.** 238 ± 10

**Q.** What about the “Creat C-2wk” value of the same molecule?
**A.** 0.56 ± 0.04 ml/(min*100g)

**Q.** What about the “Creat C-6wk” value of the same molecule?
**A.** 0.86 ± 0.11 ml/(min*100g)

**Q.** And the average glomerular volume?
**A.** significant increase in average glomeruli volume

**Q.** And the “decrease in heparan sulfate (HS) side-chain staining relative to controls” value?
**A.** 50%

**Q.** What about the “glomerular albumin deposition / cross-linking relative to controls” value of the same molecule?
**A.** four-fold increase

**Q.** And the “immunofluorescent glomerular staining for Heparan Sulfate Proteoglycan Core protein” value?
**A.** slightly reduced staining

**Q.** What about the “immunofluorescent glomerular staining for Heparan Sulfate Proteoglycan side-chain” value of the same molecule?
**A.** highly reduced staining

**Q.** And the “immunofluorescent glomerular staining for RSA” value?
**A.** elevated staining

**Q.** And the “increase in glomerular volume (GV) relative to controls” value?
**A.** 30%

**Q.** What about the “Alcian blue pH 1.0 glomerular staining versus controls” value of the same molecule?
**A.** significantly decreased

**Q.** And the “increase in acidic glycosaminoglycans, Alcian Blue pH 2.5 staining” value?
**A.** 50-60%

**Q.** Which “Alcian Blue pH 1.0, scoring” value does the source give for “Amadori-RSA: rat serum albumin incubated with 0.5 M ribose for 12 hours, then dialyzed; negative for antigenic AGEs” here?
**A.** 2.00 ± 0.41

**Q.** And the “Alcian Blue pH 2.5, scoring” value?
**A.** 2.12 ± 0.12

**Q.** And the “HS core protein (Ab BL-31), scoring” value?
**A.** 235 ± 12

**Q.** What about the “Creat C-2wk” value of the same molecule?
**A.** 1.02 ± 0.10 ml/(min*100g)

**Q.** And the “Creat C-6wk” value?
**A.** 0.60 ± 0.10 ml/(min*100g)

**Q.** What about the average glomerular volume of the same molecule?
**A.** significant increase in average glomeruli volume

**Q.** And the “decrease in heparan sulfate (HS) side-chain staining relative to controls” value?
**A.** 25%

**Q.** What about the “glomerular albumin deposition / cross-linking relative to controls” value of the same molecule?
**A.** not different from the controls

**Q.** What about the “immunofluorescent glomerular staining for Heparan Sulfate Proteoglycan Core protein” value of the same molecule?
**A.** slightly reduced staining

**Q.** And the “immunofluorescent glomerular staining for Heparan Sulfate Proteoglycan side-chain” value?
**A.** highly reduced staining

**Q.** And the “immunofluorescent glomerular staining for RSA” value?
**A.** elevated staining

**Q.** And the “increase in glomerular volume (GV) relative to controls” value?
**A.** 35%

**Q.** And the “Alcian blue pH 1.0 glomerular staining versus controls” value?
**A.** no significant difference

**Q.** What about the “increase in acidic glycosaminoglycans, Alcian Blue pH 2.5 staining” value of the same molecule?
**A.** 50-60%

B1: RSA: purified rat serum albumin, unmodified (protein, UniProt P02770 25-608, looked up)
Albumin: EAHKSEIAHRFKDLGEQHFKGLVLIAFSQYLQKCPYEEHIKLVQEVTDFAKTCVADENAENCDKSIHTLFGDKLCAIPKLRDNYGELADCCAKQEPERNECFLQHKDDNPNLPPFQRPEAEAMCTSFQENPTSFLGHYLHEVARRHPYFYAPELLYYAEKYNEVLTQCCTESDKAACLTPKLDAVKEKALVAAVRQRMKCSSMQRFGERAFKAWAVARMSQRFPNAEFAEITKLATDVTKINKECCHGDLLECADDRAELAKYMCENQATISSKLQACCDKPVLQKSQCLAEIEHDNIPADLPSIAADFVEDKEVCKNYAEAKDVFLGTFLYEYSRRHPDYSVSLLLRLAKKYEATLEKCCAEGDPPACYGTVLAEFQPLVEEPKNLVKTNCELYEKLGEYGFQNAVLVRYTQKAPQVSTPTLVEAARNLGRVGTKCCTLPEAQRLPCVEDYLSAILNRLCVLHEKTPVSEKVTKCCSGSLVERRPCFSALTVDETYVPKEFKAETFTFHSDICTLPDKEKQIKKQTALAELVKHKPKATEDQLKTVMGDFAQFVDKCCKAADKDNCFATEGPNLVARSKEALA
**Q.** Which “Alcian Blue pH 1.0, scoring” value does the source give for B1 here?
**A.** 2.75 ± 0.14

**Q.** And the “Alcian Blue pH 2.5, scoring” value?
**A.** 1.38 ± 0.24

**Q.** What about the “HS core protein (Ab BL-31), scoring” value of the same molecule?
**A.** 226 ± 10

**Q.** What about the “Creat C-2wk” value of the same molecule?
**A.** 0.86 ± 0.16 ml/(min*100g)

**Q.** And the “Creat C-6wk” value?
**A.** 0.70 ± 0.02 ml/(min*100g)
